The RNAGym collection of RNA variant scans (doi:10.1093/nar/gkz1192)

B1: CPEB3 Ribozyme (parent)
chain: UAACAGGGGGCCACAGCAGAAGCGUUCACGUCGCAGCCCCUGUCAGAUUCUGGUGAAUCUGCGAAUUCUGCUGUAUAUCUC

Variants of: B1
Test: self-cleavage, relative activity (ratio to wild type); higher = more cleavage; in vitro, sequencing
Method in brief: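 Barcoded CPEB3 ribozyme mutants, produced by rounds of error-prone PCR, self-cleaved while being transcribed with T7 RNA polymerase for 5 hours at 37°C and during a subsequent 15 min DNase I step before EDTA was added. Sequencing of template-switched cDNA on Illumina gave cleaved and total reads, and DNA sequencing assigned barcodes to variants. Each variant's relative activity is its cleaved/total read fraction divided by the unmutated ribozyme's fraction, averaged across three batches. A variant needed a minimum of 5 reads.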

| Variant | self-cleavage |
| --- | --- |
| C32G U51A | 0.04 |
| G33C A47G | 0.08 |
| C32U U58A | 0.14 |
| C32U U58C | 0.35 |
| U31G A45C | 0.33 |
| U31G A45G | 0.37 |
| U31G A45U | 0.57 |
| C32U U78C | 0.25 |
| C32A A64G | 0.1 |
| C32U U48C | 0.13 |
| G33A C59U | 0.24 |
| U31G G36U | 0.15 |
| C32A U51G | 0.31 |
| C32A U51C | 0.29 |
| C32A U51A | 0.24 |
| G33A A56G | 0.28 |
| G33A A56U | 0.18 |
| U31G A35G | 1.1 |
| U31G A35U | 0.36 |
| U31G U60A | 0.32 |
| U31G U60C | 0.31 |
| G33C A56G | 0.12 |
| G33C A56U | 0.14 |
| C32A U48G | 0.24 |

| Variant | self-cleavage |
| --- | --- |
| C32A U48C | 0.22 |
| C32G C44U | 0.12 |
| C32A A47G | 0.14 |
| C32G U72C | 0.11 |
| U31G C79A | 0.56 |
| G33A A75U | 0.11 |
| G33A G61A | 0.14 |
| C32U A64U | 0.13 |
| C32U A64G | 0.3 |
| G33A C39U | 0.16 |
| G33C A57G | 0.13 |
| C32G U49C | 0.11 |
| U31G U72A | 0.5 |
| U31G U72G | 0.92 |
| U31G U72C | 0.82 |
| U31G C62G | 0.15 |
| C32U C39A | 0.15 |
| U31G C34U | 0.18 |
| U31G C34A | 0.14 |
| C32A | 0.29 |
| C32U | 0.28 |
| C32G | 0.23 |
| U31G U66C | 0.37 |
| C32U C79A | 0.22 |

| Variant | self-cleavage |
| --- | --- |
| U31G U54C | 0.63 |
| U31G U54A | 0.62 |
| C32A C34G | 0.44 |
| C32U G42A | 0.19 |
| C32U G63A | 0.46 |
| C32A G70U | 0.12 |
| U31C U74C | 1.18 |
| U31C U74G | 1.23 |
| U31C U74A | 1.18 |
| C32A U43A | 0.5 |
| C32A U43C | 0.35 |
| U31G A56G | 0.45 |
| G33A A45G | 0.24 |
| G33A A45U | 0.39 |
| G33A A45C | 0.22 |
| C32U G70A | 0.21 |
| C32U U69C | 0.17 |
| C32U U69A | 0.23 |
| C32U G52C | 0.2 |
| U31C U54C | 0.8 |
| U31C U54A | 0.92 |
| U31C U54G | 0.68 |
| U31C U72G | 0.46 |
| U31C U72C | 0.97 |

| Variant | self-cleavage |
| --- | --- |
| U31C U72A | 0.5 |
| U31G G55A | 0.21 |
| U31G | 0.5 |
| C32A A75C | 0.56 |
| C32A A75U | 0.16 |
| U31C U66G | 0.35 |
| U31C U66A | 0.28 |
| U31C U66C | 0.27 |
| C32U U43A | 0.43 |
| C32U U43C | 0.25 |
| G33C A64G | 0.18 |
| C32U A65G | 0.21 |
| C32U A65U | 0.13 |
| U31G U49A | 0.34 |
| U31G U49C | 0.26 |
| C32U U51A | 0.19 |
| C32U U51G | 0.22 |
| C32U U51C | 0.16 |
| C32A G55A | 0.5 |
| U31G U69A | 0.22 |
| U31G U69C | 0.18 |
| C32U A57G | 0.22 |
| C32U A57U | 0.13 |
| C32U A57C | 0.13 |

| Variant | self-cleavage |
| --- | --- |
| U31G G53A | 0.18 |
| G33A G70C | 0.26 |
| G33A G70U | 0.71 |
| C32G U69C | 0.44 |
| C32U C34U | 0.19 |
| G33A U67C | 0.22 |
| G33A U67A | 0.15 |
| G33A U72A | 0.23 |
| G33A U72G | 0.24 |
| G33A U72C | 0.26 |
| C32A U41A | 0.27 |
| C32A U41C | 0.36 |
| G33A C40G | 0.2 |
| G33A C40A | 0.19 |
| G33A C40U | 0.38 |
| G33A G52A | 0.3 |
| G33A G52C | 0.12 |
| C32A A56G | 0.15 |
| C32A U58A | 0.37 |
| U31C U41C | 0.82 |
| U31C U41G | 0.34 |
| U31G U80A | 0.59 |
| U31G U80C | 0.72 |
| U31C U78G | 0.84 |

| Variant | self-cleavage |
| --- | --- |
| U31C U78C | 0.87 |
| U31C U78A | 0.86 |
| U31G C68A | 0.31 |
| G33A U66C | 0.31 |
| G33A U66A | 0.18 |
| U31G A77G | 0.59 |
| C32U A47U | 0.32 |
| C32U A47G | 0.19 |
| C32U U76A | 0.18 |
| C32U U76C | 0.2 |
| G33A G36A | 0.07 |
| C32A G73C | 0.17 |
| C32A G73A | 0.49 |
| G33A A65C | 0.11 |
| G33A A65G | 0.35 |
| C32G U43C | 0.37 |
| C32G C37U | 0.31 |
| G33C A77G | 0.11 |
| C32A G61A | 0.19 |
| G33A A47G | 0.4 |
| C32G A77U | 0.2 |
| C32U G55A | 0.14 |
| G33A U78C | 0.2 |
| G33A U78A | 0.04 |

| Variant | self-cleavage |
| --- | --- |
| C32A U67A | 0.13 |
| G33A U80C | 0.31 |
| G33A U80G | 0.14 |
| G33A U80A | 0.29 |
| U31G U74C | 0.96 |
| U31G U74G | 0.99 |
| U31G U74A | 1.02 |
| U31C U69G | 0.41 |
| U31C U69C | 0.31 |
| U31C U69A | 0.37 |
| C32U C81U | 0.37 |
| C32U U54C | 0.33 |
| C32U U54A | 0.2 |
| G33A U76C | 0.19 |
| C32A U49A | 0.11 |
| C32A U49C | 0.15 |
| C32U A35G | 0.18 |
| C32U A35U | 0.32 |
| C32U A35C | 0.18 |
| C32A A45G | 0.32 |
| C32A A45U | 0.35 |
| U31G A75U | 0.46 |
| U31G A75G | 0.54 |
